Measured values as given in PMC4911086 (PLoS ONE, 2016).

T1: recombinant human RANK (human, UniProt Q9Y6Q6 30-212)
T1 construct: human RANK, recombinant, R&D Systems cat# 683-RK; The vendor's product 683-RK is, as far as I recall, an Fc chimera of the RANK extracellular domain (human IgG1 Fc, C-terminal); also called rRANK; source: bought: R&D Systems (cat# 683-RK)
T1 sequence (looked up): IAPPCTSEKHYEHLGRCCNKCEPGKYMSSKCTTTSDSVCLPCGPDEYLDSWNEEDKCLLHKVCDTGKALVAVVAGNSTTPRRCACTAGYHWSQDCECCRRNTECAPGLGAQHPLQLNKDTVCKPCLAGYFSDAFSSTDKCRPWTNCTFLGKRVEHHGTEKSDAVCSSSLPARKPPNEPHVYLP


Experiments:
RANKL (Homo sapiens) = RANKL (Homo sapiens) (UniProt O14788); conditions: cited from earlier work
recombinant human RANK = target: T1, recombinant human RANK; assay: ELISA; polyvinyl 96-well plates coated with 500 ng/well recombinant human RANK; RANKL (500 ng/mL in PBS-T with 0.1% BSA) pre-incubated with serially diluted GM-0111 for about 16 hrs at 4°C, then 1 hr at 37°C on the RANK-coated wells; bound RANKL detected with anti-RANKL antibody and HRP-conjugated anti-goat IgG, absorbance at 450 nm; conditions: both partners purified

Chain of OPG (O00300 22-401): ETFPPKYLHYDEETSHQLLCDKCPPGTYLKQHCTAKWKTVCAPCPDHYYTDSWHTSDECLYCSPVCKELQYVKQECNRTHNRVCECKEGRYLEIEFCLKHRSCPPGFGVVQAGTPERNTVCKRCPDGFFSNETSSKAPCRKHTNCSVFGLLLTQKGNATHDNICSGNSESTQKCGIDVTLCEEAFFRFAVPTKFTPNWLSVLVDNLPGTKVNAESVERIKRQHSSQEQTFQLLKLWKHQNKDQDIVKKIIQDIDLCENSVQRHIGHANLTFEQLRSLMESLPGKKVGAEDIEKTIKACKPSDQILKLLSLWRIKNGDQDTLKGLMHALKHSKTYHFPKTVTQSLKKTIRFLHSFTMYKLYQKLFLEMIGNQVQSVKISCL

Row | Molecule | Kd (RANKL (Homo sapiens)) [nM] | binding result (recombinant human RANK)
1 | OPG (from UniProt O00300) | 4.24 | 
2 | recombinant human RANKL (ligand, UniProt O14788 140-317, looked up, The vendor's product is, as far as I recall, a soluble extracellular fragment of human RANKL; also called rRANKL; source: bought: R&D Systems (cat# 390-TN)) IRAEKAMVDGSWLDLAKRSKLEAQPFAHLTINATDIPSGSHKVSLSSWYHDRGWAKISNMTFSNGKLIVNQDGFYYLYANICFRHHETSGDLATEYLQLMVYVTKTSIKIPSSHTLMKGGSTKYWSGNSEFHFYSINVGGFFKLRSGEEISIEVSNPSLLDPDQDATYFGAFKVRDID |  | binds
